*1 amine or outer side, *2 acyl side, *3 side chain or, on linkers, in order; H or OH if unused. Side-chain parts run from the residue outwards. [ ]: non-standard residue; d: D form. The star is where a group is joined. C18 diacid = O=C(O)CCCCCCCCCCCCCCCCC(=O)*; C16 diacid = O=C(O)CCCCCCCCCCCCCCC(=O)*; γGlu = O=C(O)[C@H](CCC(=O)[*:2])N[*:1]; Pentanoyl = CCCCC(=O)*; AEEA = NCCOCCOCC(=O)O; Aib = CC(C)(N)C(=O)O; Butyryl = CCCC(=O)*
B1: SEQ ID NO 7 (peptide)
peptide: Butyryl-VLSLD[dV]PIKLK([γGlu-C16 diacid])QILLKQERQKKQREQAEKNKQILEQV-NH2
SMILES: CCCC(=O)N[C@H](C(=O)N[C@@H](CC(C)C)C(=O)N[C@@H](CO)C(=O)N[C@@H](CC(C)C)C(=O)N[C@@H](CC(=O)O)C(=O)N[C@@H](C(=O)N1CCC[C@H]1C(=O)N[C@H](C(=O)N[C@@H](CCCCN)C(=O)N[C@@H](CC(C)C)C(=O)N[C@@H](CCCCNC(=O)CC[C@H](NC(=O)CCCCCCCCCCCCCCC(=O)O)C(=O)O)C(=O)N[C@@H](CCC(N)=O)C(=O)N[C@H](C(=O)N[C@@H](CC(C)C)C(=O)N[C@@H](CC(C)C)C(=O)N[C@@H](CCCCN)C(=O)N[C@@H](CCC(N)=O)C(=O)N[C@@H](CCC(=O)O)C(=O)N[C@@H](CCCNC(=N)N)C(=O)N[C@@H](CCC(N)=O)C(=O)N[C@@H](CCCCN)C(=O)N[C@@H](CCCCN)C(=O)N[C@@H](CCC(N)=O)C(=O)N[C@@H](CCCNC(=N)N)C(=O)N[C@@H](CCC(=O)O)C(=O)N[C@@H](CCC(N)=O)C(=O)N[C@@H](C)C(=O)N[C@@H](CCC(=O)O)C(=O)N[C@@H](CCCCN)C(=O)N[C@@H](CC(N)=O)C(=O)N[C@@H](CCCCN)C(=O)N[C@@H](CCC(N)=O)C(=O)N[C@H](C(=O)N[C@@H](CC(C)C)C(=O)N[C@@H](CCC(=O)O)C(=O)N[C@@H](CCC(N)=O)C(=O)N[C@H](C(N)=O)C(C)C)[C@@H](C)CC)[C@@H](C)CC)[C@@H](C)CC)C(C)C)C(C)C
B2: SEQ ID NO 205 (peptide)
peptide: Ac-IVLSLD[dV]PIKLK([AEEA-γGlu-γGlu-C18 diacid])KILLEQEKQKKQREQAETN[Aib]QILAQV-NH2
SMILES: CC[C@H](C)[C@H](NC(C)=O)C(=O)N[C@H](C(=O)N[C@@H](CC(C)C)C(=O)N[C@@H](CO)C(=O)N[C@@H](CC(C)C)C(=O)N[C@@H](CC(=O)O)C(=O)N[C@@H](C(=O)N1CCC[C@H]1C(=O)N[C@H](C(=O)N[C@@H](CCCCN)C(=O)N[C@@H](CC(C)C)C(=O)N[C@@H](CCCCNC(=O)COCCOCCNC(=O)CC[C@H](NC(=O)CC[C@H](NC(=O)CCCCCCCCCCCCCCCCC(=O)O)C(=O)O)C(=O)O)C(=O)N[C@@H](CCCCN)C(=O)N[C@H](C(=O)N[C@@H](CC(C)C)C(=O)N[C@@H](CC(C)C)C(=O)N[C@@H](CCC(=O)O)C(=O)N[C@@H](CCC(N)=O)C(=O)N[C@@H](CCC(=O)O)C(=O)N[C@@H](CCCCN)C(=O)N[C@@H](CCC(N)=O)C(=O)N[C@@H](CCCCN)C(=O)N[C@@H](CCCCN)C(=O)N[C@@H](CCC(N)=O)C(=O)N[C@@H](CCCNC(=N)N)C(=O)N[C@@H](CCC(=O)O)C(=O)N[C@@H](CCC(N)=O)C(=O)N[C@@H](C)C(=O)N[C@@H](CCC(=O)O)C(=O)N[C@H](C(=O)N[C@@H](CC(N)=O)C(=O)NC(C)(C)C(=O)N[C@@H](CCC(N)=O)C(=O)N[C@H](C(=O)N[C@@H](CC(C)C)C(=O)N[C@@H](C)C(=O)N[C@@H](CCC(N)=O)C(=O)N[C@H](C(N)=O)C(C)C)[C@@H](C)CC)[C@@H](C)O)[C@@H](C)CC)[C@@H](C)CC)C(C)C)C(C)C
B3: SEQ ID NO 203 (peptide)
peptide: Ac-IVLSLD[dV]PIKLK([AEEA-γGlu-C18 diacid])KILLEQEKQKKQREQAETN[Aib]QILAQV-NH2
SMILES: CC[C@H](C)[C@H](NC(C)=O)C(=O)N[C@H](C(=O)N[C@@H](CC(C)C)C(=O)N[C@@H](CO)C(=O)N[C@@H](CC(C)C)C(=O)N[C@@H](CC(=O)O)C(=O)N[C@@H](C(=O)N1CCC[C@H]1C(=O)N[C@H](C(=O)N[C@@H](CCCCN)C(=O)N[C@@H](CC(C)C)C(=O)N[C@@H](CCCCNC(=O)COCCOCCNC(=O)CC[C@H](NC(=O)CCCCCCCCCCCCCCCCC(=O)O)C(=O)O)C(=O)N[C@@H](CCCCN)C(=O)N[C@H](C(=O)N[C@@H](CC(C)C)C(=O)N[C@@H](CC(C)C)C(=O)N[C@@H](CCC(=O)O)C(=O)N[C@@H](CCC(N)=O)C(=O)N[C@@H](CCC(=O)O)C(=O)N[C@@H](CCCCN)C(=O)N[C@@H](CCC(N)=O)C(=O)N[C@@H](CCCCN)C(=O)N[C@@H](CCCCN)C(=O)N[C@@H](CCC(N)=O)C(=O)N[C@@H](CCCNC(=N)N)C(=O)N[C@@H](CCC(=O)O)C(=O)N[C@@H](CCC(N)=O)C(=O)N[C@@H](C)C(=O)N[C@@H](CCC(=O)O)C(=O)N[C@H](C(=O)N[C@@H](CC(N)=O)C(=O)NC(C)(C)C(=O)N[C@@H](CCC(N)=O)C(=O)N[C@H](C(=O)N[C@@H](CC(C)C)C(=O)N[C@@H](C)C(=O)N[C@@H](CCC(N)=O)C(=O)N[C@H](C(N)=O)C(C)C)[C@@H](C)CC)[C@@H](C)O)[C@@H](C)CC)[C@@H](C)CC)C(C)C)C(C)C
B4: SEQ ID NO 204 (peptide)
peptide: Ac-IVLSLD[dV]PIKLK([AEEA-AEEA-γGlu-γGlu-C18 diacid])KILLEQEKQKKQREQAETN[Aib]QILAQV-NH2
SMILES: CC[C@H](C)[C@H](NC(C)=O)C(=O)N[C@H](C(=O)N[C@@H](CC(C)C)C(=O)N[C@@H](CO)C(=O)N[C@@H](CC(C)C)C(=O)N[C@@H](CC(=O)O)C(=O)N[C@@H](C(=O)N1CCC[C@H]1C(=O)N[C@H](C(=O)N[C@@H](CCCCN)C(=O)N[C@@H](CC(C)C)C(=O)N[C@@H](CCCCNC(=O)COCCOCCNC(=O)COCCOCCNC(=O)CC[C@H](NC(=O)CC[C@H](NC(=O)CCCCCCCCCCCCCCCCC(=O)O)C(=O)O)C(=O)O)C(=O)N[C@@H](CCCCN)C(=O)N[C@H](C(=O)N[C@@H](CC(C)C)C(=O)N[C@@H](CC(C)C)C(=O)N[C@@H](CCC(=O)O)C(=O)N[C@@H](CCC(N)=O)C(=O)N[C@@H](CCC(=O)O)C(=O)N[C@@H](CCCCN)C(=O)N[C@@H](CCC(N)=O)C(=O)N[C@@H](CCCCN)C(=O)N[C@@H](CCCCN)C(=O)N[C@@H](CCC(N)=O)C(=O)N[C@@H](CCCNC(=N)N)C(=O)N[C@@H](CCC(=O)O)C(=O)N[C@@H](CCC(N)=O)C(=O)N[C@@H](C)C(=O)N[C@@H](CCC(=O)O)C(=O)N[C@H](C(=O)N[C@@H](CC(N)=O)C(=O)NC(C)(C)C(=O)N[C@@H](CCC(N)=O)C(=O)N[C@H](C(=O)N[C@@H](CC(C)C)C(=O)N[C@@H](C)C(=O)N[C@@H](CCC(N)=O)C(=O)N[C@H](C(N)=O)C(C)C)[C@@H](C)CC)[C@@H](C)O)[C@@H](C)CC)[C@@H](C)CC)C(C)C)C(C)C
B5: SEQ ID NO 201 (peptide)
peptide: Pentanoyl-VLSLD[dV]PIKLK([AEEA-AEEA-γGlu-C18 diacid])KILLEQEKQKKQREQAETN[Aib]QILAQV-NH2
SMILES: CCCCC(=O)N[C@H](C(=O)N[C@@H](CC(C)C)C(=O)N[C@@H](CO)C(=O)N[C@@H](CC(C)C)C(=O)N[C@@H](CC(=O)O)C(=O)N[C@@H](C(=O)N1CCC[C@H]1C(=O)N[C@H](C(=O)N[C@@H](CCCCN)C(=O)N[C@@H](CC(C)C)C(=O)N[C@@H](CCCCNC(=O)COCCOCCNC(=O)COCCOCCNC(=O)CC[C@H](NC(=O)CCCCCCCCCCCCCCCCC(=O)O)C(=O)O)C(=O)N[C@@H](CCCCN)C(=O)N[C@H](C(=O)N[C@@H](CC(C)C)C(=O)N[C@@H](CC(C)C)C(=O)N[C@@H](CCC(=O)O)C(=O)N[C@@H](CCC(N)=O)C(=O)N[C@@H](CCC(=O)O)C(=O)N[C@@H](CCCCN)C(=O)N[C@@H](CCC(N)=O)C(=O)N[C@@H](CCCCN)C(=O)N[C@@H](CCCCN)C(=O)N[C@@H](CCC(N)=O)C(=O)N[C@@H](CCCNC(=N)N)C(=O)N[C@@H](CCC(=O)O)C(=O)N[C@@H](CCC(N)=O)C(=O)N[C@@H](C)C(=O)N[C@@H](CCC(=O)O)C(=O)N[C@H](C(=O)N[C@@H](CC(N)=O)C(=O)NC(C)(C)C(=O)N[C@@H](CCC(N)=O)C(=O)N[C@H](C(=O)N[C@@H](CC(C)C)C(=O)N[C@@H](C)C(=O)N[C@@H](CCC(N)=O)C(=O)N[C@H](C(N)=O)C(C)C)[C@@H](C)CC)[C@@H](C)O)[C@@H](C)CC)[C@@H](C)CC)C(C)C)C(C)C
B6: SEQ ID NO 202 (peptide)
peptide: Pentanoyl-VLSLD[dV]PIKLK([AEEA-AEEA-γGlu-C18 diacid])KILLEQEKQK[Aib]QREQAETN[Aib]QILAQV-NH2
SMILES: CCCCC(=O)N[C@H](C(=O)N[C@@H](CC(C)C)C(=O)N[C@@H](CO)C(=O)N[C@@H](CC(C)C)C(=O)N[C@@H](CC(=O)O)C(=O)N[C@@H](C(=O)N1CCC[C@H]1C(=O)N[C@H](C(=O)N[C@@H](CCCCN)C(=O)N[C@@H](CC(C)C)C(=O)N[C@@H](CCCCNC(=O)COCCOCCNC(=O)COCCOCCNC(=O)CC[C@H](NC(=O)CCCCCCCCCCCCCCCCC(=O)O)C(=O)O)C(=O)N[C@@H](CCCCN)C(=O)N[C@H](C(=O)N[C@@H](CC(C)C)C(=O)N[C@@H](CC(C)C)C(=O)N[C@@H](CCC(=O)O)C(=O)N[C@@H](CCC(N)=O)C(=O)N[C@@H](CCC(=O)O)C(=O)N[C@@H](CCCCN)C(=O)N[C@@H](CCC(N)=O)C(=O)N[C@@H](CCCCN)C(=O)NC(C)(C)C(=O)N[C@@H](CCC(N)=O)C(=O)N[C@@H](CCCNC(=N)N)C(=O)N[C@@H](CCC(=O)O)C(=O)N[C@@H](CCC(N)=O)C(=O)N[C@@H](C)C(=O)N[C@@H](CCC(=O)O)C(=O)N[C@H](C(=O)N[C@@H](CC(N)=O)C(=O)NC(C)(C)C(=O)N[C@@H](CCC(N)=O)C(=O)N[C@H](C(=O)N[C@@H](CC(C)C)C(=O)N[C@@H](C)C(=O)N[C@@H](CCC(N)=O)C(=O)N[C@H](C(N)=O)C(C)C)[C@@H](C)CC)[C@@H](C)O)[C@@H](C)CC)[C@@H](C)CC)C(C)C)C(C)C

Tests used:
[1] = molecular target: human corticotropin-releasing factor 2a (CRF2a receptor) (human), Q13324; assay: cell-based or functional assay
Chain of human corticotropin-releasing factor 2a (CRF2a receptor) (human), Q13324 (Q13324 20-411): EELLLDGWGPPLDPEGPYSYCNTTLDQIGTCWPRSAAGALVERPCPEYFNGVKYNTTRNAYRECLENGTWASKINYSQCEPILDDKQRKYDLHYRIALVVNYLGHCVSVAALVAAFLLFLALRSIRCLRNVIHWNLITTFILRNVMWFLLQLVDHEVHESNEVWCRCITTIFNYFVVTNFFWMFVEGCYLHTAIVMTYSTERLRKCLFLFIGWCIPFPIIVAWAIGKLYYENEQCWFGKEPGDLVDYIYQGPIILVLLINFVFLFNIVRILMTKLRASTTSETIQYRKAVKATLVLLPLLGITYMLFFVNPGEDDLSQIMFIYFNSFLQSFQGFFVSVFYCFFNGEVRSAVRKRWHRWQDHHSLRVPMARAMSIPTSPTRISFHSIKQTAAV

CRF1R receptor = molecular target: T1, CRF1R receptor (UniProt P34998 24-415, limits assumed); assay: cell-based or functional assay
T1 sequence (looked up): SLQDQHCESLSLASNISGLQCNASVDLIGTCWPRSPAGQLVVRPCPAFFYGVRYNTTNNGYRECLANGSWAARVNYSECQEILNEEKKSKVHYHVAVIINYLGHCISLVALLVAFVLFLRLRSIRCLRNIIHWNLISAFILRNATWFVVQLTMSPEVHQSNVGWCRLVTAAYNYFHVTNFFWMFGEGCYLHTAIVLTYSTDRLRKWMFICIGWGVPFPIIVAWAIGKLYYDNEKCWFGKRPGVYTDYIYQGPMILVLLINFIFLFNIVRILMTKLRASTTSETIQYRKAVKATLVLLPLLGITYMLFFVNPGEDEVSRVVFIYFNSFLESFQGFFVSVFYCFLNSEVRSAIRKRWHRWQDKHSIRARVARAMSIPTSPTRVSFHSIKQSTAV

| Binder | EC50 [nM] (cAMP) [1] | EC50 (CRF1R receptor) [nM] | Emax (% I) (CRF1R receptor) [%] |
| --- | --- | --- | --- |
| B1 | 0.06 | 101 | 59 |
| B2 | 1.43 | – | 1 |
| B3 | 0.43 | – | 3 |
| B4 | 1.84 | – | -2 |
| B5 | 1.37 | – | 5 |
| B6 | 1.73 | – | 8 |
